The DeepSol protein solubility set

Assay: soluble on expression in E. coli; label from the status in PepcDB or PDB records

Soluble on expression in E. coli, not soluble:
MGSDKIHHHHHHMKCSQCNKKLCYTGKDCKKDITQKIIEEYKKEENLKIAEVSAYIEATYYMKKTRLEEIIEFCKLMEYKKIGIAFCIGLENEAKILAKILSKHFEVYSVCCKVCGIDKDVFKFKKINKGEKEAMCNPIGQAEILNEIGTDLNIIVGLCIGHDILFQKYSKAPTTTFIVKDRVLSHNTAGAIYTKYYLKKLLEGK, MGSDKIHHHHHHMKDILKELKKKLSEEDFNKFNGRVTRVVGLTVESKGPDAFLGEMCKISLQNGKNALAEVVGFREESVILMPYEDVSGLKMGCEVIRTNKVLEVGVSRKMIGRVFDGLGRPIDGKPFVPEDRYPLINNPPNPLKRRRIKDPLPVGIRSIDGFITIGKGQRIGIFAGSGVGKSTLLGMIARNTTADINVLALIGERGREVREFIERDLGEEGLKRSILVVSTSDQPALARVKSLLTATSIAEFFRDLGYDVLLMVDSLTRWAMAQREVGLAVGEPPTTRGYPPSVFAGLPKILERAGNSDKGSITAIYTVLVEADDFNEPISDTVRSIVDGHIILSRRLAESNHYPAVDVLASVSRLMNDIVTEEHREAANRLRSLMSAYESAKDLIEIGAYKSGTNPLVDKAVEMKDEIDSFLKQGVFEKASFEETLQKLLDLYLRSLD, MGSDKIHHHHHHMKDILVIGATGKQGNAVVKQLLEDGWYVSALTRNKNNRKLSDIGHPHLSIVEGDLSDNVSLQSAMKGKYGLYSIQPIVKDDVSEELRQGMKIIEIAEQENIQHIVYSTAGGVNRNRTGPHFEVLAKIENRLMESNINATVIKPSFFMDNFLRIAKVEDERITLPEFINPNIKFTMISSIDIAKIASYIFAHPQSFTHQSIEIGSDEVTLSEAATIFSEVTGKSTVIEGEFVSGVAEKQWLEEKGYEVDFELMAEINPTRLSLSDWLKVQNYNK, MGSDKIHHHHHHMKDNYDAPESMLTGRVMYNGEALQLRGNEAVQLQLYQHGYAKHDPINVYVNQDGMYSANLFDGEYQMITKSGNGPWTSEGRDTINVTVAGNTVQDVEVTPYYLVRDAQMTLEGNKVNASFKVEKVAGGGIDRVFFMLSTTQFVNDAEHNVDRYDETDNLDAYDETGKLYTFATRDYTDNSMFQTALKRGTLFGRICIWPKGSDQGIYSKVIRLK, MGSDKIHHHHHHMKDSFRTIYNGASVPLAEIPPVDINEFLQGILDSVDRGWRIVSYFGIPAPSSTALVCILANKAEGRLAAARTETSDSHVPSLSSLITQVQLFEREIAEQCGLIFDGHPWFKPVRFHHSFVPGRDAWDRTADEPLRVGVMDYYQVAGDEVHEVAVGPVHAGIIEPGHFRFQCHGEEVFHLEISLGYQHRGIEAGLAGGPHPRTLQVMETAAGDTTIGHGQAYCMIMESLGGIKAPPRAEVLRGIALELERLANHTGDLGAIAGDVGYLPTSSFCGRIRGDFLNMTAVLCGSRFGRGLLVPGGTIFDLTPGLRDDLLKRLAEARRDLTNAIELLWSSPSVMGRLEGTGTLTREQALELGLVGPAARACGIKRDVRLDYPFGIYRMTHLPVATVFHGDVCARTMIRWLEAQKSMDFIEEQLRQLPGGGHRVATAPCAGGRLAVALTEGWRGEICHVAVTDDAGRFSRYKIVDPSFHNWQGLALALRGQQISDFPLCNKSFNLSYCGFDL, MGSDKIHHHHHHMKEISVVLVGIGGYGNKYVEYILREGREKGVRISGVVDPYPQNSRFYDELRSLNVPMYNTLEEFYSHHTADLAIISSPIHYHCEQTCTAVRNGSHVLCEKPAAATVKEVKKMIECREKYGKIVAIGYQWSYNPAVLKLKEDILAGKFGKPVLFKTLVLWPRDTAYYRRNSWAGKLKVNNRWVLDSVAGNATAHFLHNMLFLLGEKMEESAYPESMVAELYRANDIESFDTCALKMTVRKIPVLFFATHAVKERKGPVFEYRFEKARVICNYPEYPESEENLLVVYEDGRKEIYGPTDHGSMRKLWVVVDAARGRKEFICTLESAMAHTIAINGAHVSMKEIQDFPTELKRVEGEPPMIWVEGLKEAMERAYEEEKIFSELNLPWAKRGEEVKLENFEGLEGEITC, MGSDKIHHHHHHMKEIVHLQSFLAVARTGSLTLAAEELHVTPSAVSHRLRQLEQRLGAKLLRRTPHGMALTGEGQRFKDRISDPIEAIEMALRPETGQEGPLTVSVMPWFASSWLMPRLKRFQLRCPDARIRIETSSQLSDLAHGHVTAALRFGRGDWPDIEVEPLFDEWVIPVASPDVVAQMGSNAQDPARWPRLPDPDDLWSSWFGDEVMGEAMRSSIELHDTSSLTEAAVNGMGVVLGRYTHVAPWLERGDLVTLASQWIRMPKRHYLVRSRHRPMHSCFPHFRRWLHDEVKKYQTSASSEFY, MGSDKIHHHHHHMKEVTLGRGMIPGVVPSLAFRRDVSSIVAKRNPSPSIRASFPVRDLFHALARSAGDSDTHHAARKFLDERLVEVAHLESDLPHDIAALPQWLEQRCARVRSDYRAYLADRHAGQQARYFSCRAHALHFLQSMAPSRMVEGAWLYGFLKHWREARFAPMCRVYLRNLGDGDPGCNQVSLYQKLLDRNGCADWHGLDDQYYVQGAIRLALGHHVDHYLPEIIGFNLGYDQVSLPMLIAAYELSEQGVLPHYFTLHVTEDDAGASSAMKLLGSLLDTADSAKAREMLLHRVNNGYKLHRLGLDIPGIVASFDLQKAFLAVMQPCAAYLERVYRIDCMERGIRGRWTDSLPLPLLLQQLCNEGWMHPDEKGKTRLWQVLERGNLLPAPGYPQQVVVDWSARSDEYGKRLPHTDVADLVPVSPPPARRPEEAEEHWADFNESGSQADLMEHMIRLLSPLAHHTQEGLKAARIYKSILEKGSELYSQHSALFLWHGRV, MGSDKIHHHHHHMKFLDVNQHLSELDEHIKVLKSYGDVFEAVEARITRVINMDGAFKGEGAKGVIYNHTHMQLPTIRSIRAFLISFSDTLEKMKANITEYEPASNGSVSENFWKNQLPKAYDRYEETLEEREATINQATAQVSHILHLGKLQTGDLYNSVDSARKHADTVLEGLYDLDQAGVELMAQVRTKMEELKATIRQVLDWNMTGGVTMKGVSIMEIGGYFANNATLHEKAPEVKVELLDLNPLVQYANDFPLRFKYDTMHSINESI, MGSDKIHHHHHHMKFVIRDLNTKKVMKNAYRITKTKYETSLRVRVPGGLIDPESLAVVSKIASEYGNGQVHITTRQGFEILGINMEDMEEINKIIQPVIEKMNINQSEKNAGYPAAGTRNIAACIGNKVCPKAQYNTTEFAKRIEKAIFPNDLHFKVALTGCPNDCIKARMNDFGIIGMALPIYEKDRCVNCGACVKKCSKISVGALKTENNKVVRDKDKCIGCGECVLNCPTNAWTRDEKKYYRLAIMGRTGKKNPRLAEDFLLWVDEDSIIKIILNTYRYVEKYIDKDAPGGKEHIGYIIDRTGFMEFKKWALEGVELPEITKMYENIYWSGIKYL, MGSDKIHHHHHHMKICLVSSMHPPHDKRVFDKEAVTLSSNGYKVLHLCPGTASDSGVFNDVEIVPYCRPSGIKGRLLQIFQLYRMANKINADVYHCNEVDSWFVGVLLKILRKKLCVFDVHEHYPSTFAESRFPKWIQPAVSSLVKLIFRLFLPFTDRLVLAKKSVSDDFPNSDSKKVLVRNFTPLSGINFTGVREVVPKGSDVTLIHLGLFGKIRGWPQTLEALKTMKQKNVRLVVIGDFNDGSRADFDSVVSAYGLNDRVVVYDWMPFEDAFKHLMQAHIGLVVFQPGILNHVYAMPHKMFDYMAAGMAVICPEFAMEVAPFVKEAKCGLLVDTANPADLAKKLDELVSSPDLIHEMGVRAQKAVQQHYNWEAEAKHLIQMYKELEELQ, MGSDKIHHHHHHMKIGFLGFGKSNRSLLKYLLNHQEAKFFVSEAKTLDGETKKFLEEHSVEYEEGGHTEKLLDCDVVYVSPGIKPDTSMIELLSSRGVKLSTELQFFLDNVDPKKVVGITGTDGKSTATALMYHVLSGRGFKTFLGGNFGTPAVEALEGEYDYYVLEMSSFQLFWSERPYLSNFLVLNISEDHLDWHSSFKEYVDSKLKPAFLQTEGDLFVYNKHIERLRNLEGVRSRKIPFWTDENFATEKELIVRGKKYTLPGNYPYQMRENILAVSVLYMEMFNELESFLELLRDFKPLPHRMEYLGQIDGRHFYNDSKATSTHAVLGALSNFDKVVLIMCGIGKKENYSLFVEKASPKLKHLIMFGEISKELAPFVGKIPHSIVENMEEAFEKAMEVSEKGDVILLSPGGASFDMYENYAKRGEHFREIFKRHGGDEV, MGSDKIHHHHHHMKIKVALLDKDKEYLDRLTGVFNTKYADKLEVYSFTDEKNAIESVKEYRIDVLIAEEDFNIDKSEFKRNCGLAYFTGTPGIELIKDEIAICKYQRVDVIFKQILGVYSDMAANVATISGENDKSSVVIFTSPCGGVGTSTVAAACAIAHANMGKKVFYLNIEQCGTTDVFFQAEGNATMSDVIYSLKSRKANLLLKLESCIKQSQEGVSYFSSTKVALDILEISYADIDTLIGNIQGMDNYDEIIVDLPFSLEIEKLKLLSKAWRIIVVNDGSQLSNYKFMRAYESVVLLEQNDDINIIRNMNMIYNKFSNKNSEMLSNISIKTIGGAPRYEHATVRQIIEALTKMEFFEEILQ, MGSDKIHHHHHHMKIKVKLPDGKEKEYDRGITPAEIAKELGIKKAIGAVVNGELWDLKRPIENDCELRLVTLEDPEAPEFYRHTMAHILAQAVMRLYGKENVKLGIGPTIENGFYYDFDIKNGRLTEEDLPKIEQEMKKIIKENLPIERKEISKEEARELFRDQPYKLELIEEIEGNRVTIYRQGEFVDLCRGPHLPSTGIVKHFKLLSVSGAYWRGSEKNPMLTRVYGTAFAKKEDLDNYLKFLEEAQRRDHRKLGPQLELFMLNTEYAPGMPFFLPKGVVVLNELMKFSRELHRERGYQEIFTPLIMNEQLWKISGHWDHYAENMYFIEKDEERYAVKPMNCPGHILVYKSRTVSYRDLPLRFFEFGRVHRYERSGVLHGLMRVRSFTQDDAHIFCTPDQIEEEILGVLDLINTIYSQFGFTYRVELSTMPEDHMGDEAIWEKATTALKNALERAGLSYKVNEGEGAFYGPKIDFHIRDSIGREWQCATIQLDFMMPEKFNVTYIGPDNKEHRAVMIHRAIYGSLERFFGILIEHFAGAFPTWLAPIQVAVIPISEKHNDGAEKVARRISQEGFRVFFDNRRETLGYRIRQAQTQKIPYMIIIGDKELESGKISVRTRTGKEIKDVDPEHFVETLRNEVLSRKLELSMEG, MGSDKIHHHHHHMKILKHSLFTSVVNKMRLIHHQDDTAKLSLLITGMSGTGKSTLVDWYEQQYPVEYTPEVTLKRVICVHLTKPNSPINLLEQIINAMGTSYIPRRRTLNKLLHQLKCLLEACQTELIILDEAQECLPDSDGIKAQSMAKAFVAIIDKCNVPLILIGTPALKRLLKLKYLADVKNISREEQLSRRFIAPCQLNIFLSHCDAWVNVINFFGKTKGLRNLNTKDADILDRLYVATYGRIGLIKKLFAFTQLNETSDLQATFYDAYELVDTTGEANPFNQQDYTYAAIIKKAENIERIYFTHNKTHPSEKRVADRLFH, MGSDKIHHHHHHMKILPVISTKGGEGKSTQAANLAGFFADAGLKTLLIDGDYSQPTASSIYALEHEAPFGLFELLMQTTDLNQPESIISRTAIPNLDLIISNDPDDRLPTAMLHAPDGRMRLKNILQHQSFQSYDVIMIDSKGAAGVMVELVVLAATENVVGVIKPILPDVREFMRGTVRLMSRLLALQAYGIQIPDIKILANCVENTSLDRKTLEELGNIVSEKKYLQSESINISILETKIDQLEVYKRGHAFGQPVHRLEYVTDRKSAAAAVTMHSLACELFPHWKDKFDSVLRNQTGAGEVASV, MGSDKIHHHHHHMKILVGSPVSLEEFETIDLFISWLDVIPDNARFSIVGTSKFFIIGKNGREWKKGYEFGIVDADINIFVVGGDLALYPEVFYIAKENGAKLVVGFCEIQNFIDFNFVKAKFWAHTQETSLASIVLLNFLGKVHNNIYFPLEKTKNQTGVVAEGVAPVFLELKKNFFSSEEAEDV
